The series has as its system Escherichia coli TOP10. The series can be described thus: shrunken log2 fold change of peptide-encoding DNA abundance (4.5 h post-induction vs induction); higher = less antimicrobial activity (less host growth inhibition). As to conditions: time post-induction: 4.5 h; library: site-saturation at positions 5, 18, 19, 20.
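Note: peptides expressed intracellularly from a pBAD plasmid library in pooled LB shake-flask culture, induced with 0.3% L-arabinose, DNA abundance read by NGS, three biological replicates, DESeq2 with apeglm shrinkage.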

As for RRIRSRPPRLPRPRPRPSNHPRP, the “shrunken log2 fold change” value is -0.503.

Consider RRIRMRPPRLPRPRPRPLYNPRP, for which the “shrunken log2 fold change” value is -0.335.

For the sequence RRIRLRPPRLPRPRPRPFKVPRP, the “shrunken log2 fold change” value stood at 0.0321.

For RRIRWRPPRLPRPRPRPSPTPRP, the “shrunken log2 fold change” value was found to be 0.0554.

Regarding RRIRRRPPRLPRPRPRPRPSPRP, the “shrunken log2 fold change” value was determined as 0.781.

As to RRIRWRPPRLPRPRPRPINVPRP, the “shrunken log2 fold change” value was -0.0356.

As to RRIRNRPPRLPRPRPRPDIFPRP, the “shrunken log2 fold change” value is -0.172.

For the sequence RRIRQRPPRLPRPRPRPLSYPRP, the “shrunken log2 fold change” value worked out at 0.121.

As to RRIRYRPPRLPRPRPRPCWQPRP, the “shrunken log2 fold change” value was 0.013.

In the case of RRIRERPPRLPRPRPRPHMAPRP, the “shrunken log2 fold change” value is -0.0803.

For the sequence RRIRERPPRLPRPRPRPVFAPRP, the “shrunken log2 fold change” value was found to be 0.181.

RRIRCRPPRLPRPRPRPWWDPRP: the “shrunken log2 fold change” value was 0.00335.

In the case of RRIRRRPPRLPRPRPRPRAFPRP, the “shrunken log2 fold change” value amounted to 0.605.

Take RRIRDRPPRLPRPRPRPGITPRP: the “shrunken log2 fold change” value was determined as 0.297.

For RRIRCRPPRLPRPRPRPWCIPRP, the “shrunken log2 fold change” value is -0.308.

Consider RRIRQRPPRLPRPRPRPYACPRP, for which the “shrunken log2 fold change” value came out at 0.0958.

Regarding RRIRYRPPRLPRPRPRPLRCPRP, the “shrunken log2 fold change” value turned out to be 0.0617.

On to RRIRDRPPRLPRPRPRPFSIPRP, for which the “shrunken log2 fold change” value is 0.0044.

For the sequence RRIRLRPPRLPRPRPRPEHRPRP, the “shrunken log2 fold change” value was 0.283.

For RRIRWRPPRLPRPRPRPAAPPRP, the “shrunken log2 fold change” value was found to be 0.613.

As to RRIRKRPPRLPRPRPRPLSMPRP, the “shrunken log2 fold change” value is 0.0129.

Turning to RRIRARPPRLPRPRPRPRNTPRP, the “shrunken log2 fold change” value worked out at 0.146.

Consider RRIRERPPRLPRPRPRPRDDPRP, for which the “shrunken log2 fold change” value is 0.0953.

RRIRQRPPRLPRPRPRPKCEPRP: the “shrunken log2 fold change” value came to 0.0276.

On to RRIRQRPPRLPRPRPRPIGWPRP, for which the “shrunken log2 fold change” value was 0.256.

For the sequence RRIRWRPPRLPRPRPRPHDGPRP, the “shrunken log2 fold change” value is -0.00986.

With RRIRPRPPRLPRPRPRPLFGPRP, the “shrunken log2 fold change” value was 0.142.

Regarding RRIRARPPRLPRPRPRPSFGPRP, the “shrunken log2 fold change” value turned out to be 1.08.

For RRIRERPPRLPRPRPRPTYIPRP, the “shrunken log2 fold change” value was -1.02.

Regarding RRIRERPPRLPRPRPRPLNDPRP, the “shrunken log2 fold change” value was -0.272.

With RRIRRRPPRLPRPRPRPQIHPRP, the “shrunken log2 fold change” value was -0.515.

For RRIRLRPPRLPRPRPRPQSSPRP, the “shrunken log2 fold change” value was -0.419.

For RRIRARPPRLPRPRPRPVLRPRP, the “shrunken log2 fold change” value was 0.228.

Take RRIRGRPPRLPRPRPRPEQYPRP: the “shrunken log2 fold change” value is -0.183.

As for RRIRIRPPRLPRPRPRPMWIPRP, the “shrunken log2 fold change” value is -0.208.

Take RRIRARPPRLPRPRPRPREVPRP: the “shrunken log2 fold change” value turned out to be 0.738.

Turning to RRIRHRPPRLPRPRPRPVSHPRP, the “shrunken log2 fold change” value is 0.0628.

RRIRGRPPRLPRPRPRPPMYPRP: the “shrunken log2 fold change” value stood at 0.145.

For the sequence RRIRVRPPRLPRPRPRPQNTPRP, the “shrunken log2 fold change” value was -0.524.

For the sequence RRIRIRPPRLPRPRPRPKHDPRP, the “shrunken log2 fold change” value is -0.463.

Turning to RRIRQRPPRLPRPRPRPQAYPRP, the “shrunken log2 fold change” value is -0.0257.

Consider RRIRHRPPRLPRPRPRPISEPRP, for which the “shrunken log2 fold change” value is -0.0415.

Consider RRIRVRPPRLPRPRPRPIENPRP, for which the “shrunken log2 fold change” value is -0.229.

As for RRIRQRPPRLPRPRPRPCTMPRP, the “shrunken log2 fold change” value is -0.804.

In the case of RRIRLRPPRLPRPRPRPYVIPRP, the “shrunken log2 fold change” value was -0.662.

For RRIRERPPRLPRPRPRPMNFPRP, the “shrunken log2 fold change” value is -0.192.

For RRIRPRPPRLPRPRPRPIRSPRP, the “shrunken log2 fold change” value is 0.00396.

On to RRIRNRPPRLPRPRPRPEYDPRP, for which the “shrunken log2 fold change” value was -0.0369.

RRIRPRPPRLPRPRPRPAIVPRP: the “shrunken log2 fold change” value was found to be 0.119.

For the sequence RRIRMRPPRLPRPRPRPNEEPRP, the “shrunken log2 fold change” value is -0.0651.

Consider RRIRMRPPRLPRPRPRPLSEPRP, for which the “shrunken log2 fold change” value worked out at 0.511.

As for RRIRRRPPRLPRPRPRPDGHPRP, the “shrunken log2 fold change” value is -0.0521.

Regarding RRIRDRPPRLPRPRPRPNSYPRP, the “shrunken log2 fold change” value turned out to be 0.179.

Take RRIRTRPPRLPRPRPRPFRMPRP: the “shrunken log2 fold change” value stood at 0.0244.

In the case of RRIRKRPPRLPRPRPRPFRYPRP, the “shrunken log2 fold change” value is -0.0832.

Take RRIRSRPPRLPRPRPRPELAPRP: the “shrunken log2 fold change” value was determined as 0.929.

As for RRIRVRPPRLPRPRPRPQDSPRP, the “shrunken log2 fold change” value was -0.069.

As to RRIRCRPPRLPRPRPRPDNAPRP, the “shrunken log2 fold change” value was -0.164.

On to RRIRTRPPRLPRPRPRPNPMPRP, for which the “shrunken log2 fold change” value was -0.383.

As for RRIRLRPPRLPRPRPRPEEHPRP, the “shrunken log2 fold change” value was found to be 0.00515.

In the case of RRIRHRPPRLPRPRPRPAMHPRP, the “shrunken log2 fold change” value worked out at 0.0521.

Turning to RRIRHRPPRLPRPRPRPYCAPRP, the “shrunken log2 fold change” value is -0.346.

Source of the values: the supplement of paper PMC9112550, “Optimization of the antimicrobial peptide Bac7 by deep mutational scanning” (BMC Biology, 2022).
